Results from publication PMC6297244, “Synthesis and Kinetic evaluation of an azido analogue of methylerythritol phosphate: a Novel Inhibitor of E. coli YgbP/IspD” (Scientific Reports, 2018).

Experiments:
[1] = substrate: Nc1ccn([C@@H]2O[C@H](COP(=O)(O)OP(=O)(O)OP(=O)(O)O)[C@@H](O)[C@H]2O)c(=O)n1; assay: Michaelis-Menten and bi-substrate steady-state kinetics (apparent Km), malachite green assay; format: biochemical, Escherichia coli; details: Mg2+ ([…] MgCl2 in assay); MEP as co-substrate CTP-binding pocket; sequential mechanism
[2] = substrate: C[C@](O)(CO)[C@H](O)COP(=O)(O)O; assay: as above; format: biochemical, Escherichia coli; details: Mg2+ ([…] MgCl2 in assay); CTP as co-substrate sequential mechanism; ternary complex with CTP

B1: YgbP/IspD (Escherichia coli K-12) (protein)
chain: ATTHLDVCAVVPAAGFGRRMQTECPKQYLSIGNQTILEHSVHALLAHPRVKRVVIAISPGDSRFAQLPLANHPQITVVDGGDERADSVLAGLKAAGDAQWVLVHDAARPCLHQDDLARLLALSETSRTGGILAAPVRDTMKRAEPGKNAIAHTVDRNGLWHALTPQFFPRELLHDCLTRALNEGATITDEASALEYCGFHPQLVEGRADNIKVTRPEDLALAEFYLTRTIHQENT
Km [1]: 84 ± 9 µM | Km [2]: 40 ± 7 µM
